# Columns and labels:
# [1] = biological target: KAT6A MYST domain (KAT6A 501-784) (human) (UniProt Q92794)
# [2] = biological target: full-length KAT6A (KAT6A^FL) (human) (UniProt Q92794)
# [3] = biological target: KAT6A^FL 4-protein complex (KAT6A^FL 4-plex) (UniProt Q92794)
# [4] = biological target: KAT6A^FL-BRPF1 2-protein complex (KAT6A^FL 2-plex) (human) (UniProt Q92794)
# KAT6A^FL-BRPF1 2-protein complex (KAT6A^FL 2-plex) (human), sequence (Q92794 whole entry, chain 1 of 2): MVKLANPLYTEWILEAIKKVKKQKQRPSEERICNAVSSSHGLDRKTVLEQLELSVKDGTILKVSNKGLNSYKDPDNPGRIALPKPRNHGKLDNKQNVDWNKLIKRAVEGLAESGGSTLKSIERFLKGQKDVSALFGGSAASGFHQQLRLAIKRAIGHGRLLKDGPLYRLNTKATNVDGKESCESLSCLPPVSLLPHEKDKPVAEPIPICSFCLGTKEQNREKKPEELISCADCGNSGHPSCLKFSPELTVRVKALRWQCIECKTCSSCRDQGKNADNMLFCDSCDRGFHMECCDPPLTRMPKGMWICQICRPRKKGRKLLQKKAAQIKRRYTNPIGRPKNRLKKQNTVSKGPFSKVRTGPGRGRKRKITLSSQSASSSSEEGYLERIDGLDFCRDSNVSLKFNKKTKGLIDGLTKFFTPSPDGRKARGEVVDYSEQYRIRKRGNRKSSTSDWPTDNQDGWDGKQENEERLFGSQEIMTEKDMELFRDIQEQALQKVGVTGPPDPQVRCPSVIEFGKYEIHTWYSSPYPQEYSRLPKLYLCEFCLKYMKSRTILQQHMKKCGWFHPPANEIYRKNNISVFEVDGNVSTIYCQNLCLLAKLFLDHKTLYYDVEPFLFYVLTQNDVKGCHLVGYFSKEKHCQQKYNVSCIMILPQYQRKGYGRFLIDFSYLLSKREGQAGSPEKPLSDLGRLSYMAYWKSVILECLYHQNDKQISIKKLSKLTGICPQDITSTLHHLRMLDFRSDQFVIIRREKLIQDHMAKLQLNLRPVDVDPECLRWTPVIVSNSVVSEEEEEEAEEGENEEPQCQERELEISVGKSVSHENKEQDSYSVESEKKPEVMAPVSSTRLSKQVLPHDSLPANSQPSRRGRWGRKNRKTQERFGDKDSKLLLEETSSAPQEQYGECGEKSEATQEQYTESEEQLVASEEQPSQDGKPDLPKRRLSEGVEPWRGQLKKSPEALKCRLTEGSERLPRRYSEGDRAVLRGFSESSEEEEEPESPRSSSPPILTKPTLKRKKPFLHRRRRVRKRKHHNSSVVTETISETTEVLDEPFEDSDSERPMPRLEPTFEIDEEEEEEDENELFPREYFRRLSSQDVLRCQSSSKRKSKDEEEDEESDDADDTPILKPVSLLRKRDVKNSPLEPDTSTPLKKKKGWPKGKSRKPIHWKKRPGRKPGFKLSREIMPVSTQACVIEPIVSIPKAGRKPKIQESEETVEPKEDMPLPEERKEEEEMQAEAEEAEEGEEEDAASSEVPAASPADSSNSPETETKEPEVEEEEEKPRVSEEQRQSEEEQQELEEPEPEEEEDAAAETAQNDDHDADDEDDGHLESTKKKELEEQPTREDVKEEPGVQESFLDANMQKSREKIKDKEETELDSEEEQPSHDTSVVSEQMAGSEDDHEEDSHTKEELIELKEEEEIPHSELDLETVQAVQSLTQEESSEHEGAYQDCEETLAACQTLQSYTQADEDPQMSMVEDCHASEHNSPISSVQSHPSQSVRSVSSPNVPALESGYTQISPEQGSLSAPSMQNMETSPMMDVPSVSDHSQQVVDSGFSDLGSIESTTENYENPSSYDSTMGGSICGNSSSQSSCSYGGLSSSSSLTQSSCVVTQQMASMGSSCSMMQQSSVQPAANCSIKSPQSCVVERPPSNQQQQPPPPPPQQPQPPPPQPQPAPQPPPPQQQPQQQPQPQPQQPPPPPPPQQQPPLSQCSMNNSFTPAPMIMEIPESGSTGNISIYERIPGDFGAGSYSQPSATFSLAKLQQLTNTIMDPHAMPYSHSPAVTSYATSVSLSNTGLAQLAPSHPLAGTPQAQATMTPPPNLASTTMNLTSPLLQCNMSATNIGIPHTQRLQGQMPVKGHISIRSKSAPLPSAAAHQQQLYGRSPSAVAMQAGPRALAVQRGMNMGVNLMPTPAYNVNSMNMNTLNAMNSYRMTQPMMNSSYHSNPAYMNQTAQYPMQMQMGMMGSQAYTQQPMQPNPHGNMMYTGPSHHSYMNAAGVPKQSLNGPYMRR
# KAT6A^FL-BRPF1 2-protein complex (KAT6A^FL 2-plex) (human), sequence (P55201 whole entry, chain 2 of 2, further chain): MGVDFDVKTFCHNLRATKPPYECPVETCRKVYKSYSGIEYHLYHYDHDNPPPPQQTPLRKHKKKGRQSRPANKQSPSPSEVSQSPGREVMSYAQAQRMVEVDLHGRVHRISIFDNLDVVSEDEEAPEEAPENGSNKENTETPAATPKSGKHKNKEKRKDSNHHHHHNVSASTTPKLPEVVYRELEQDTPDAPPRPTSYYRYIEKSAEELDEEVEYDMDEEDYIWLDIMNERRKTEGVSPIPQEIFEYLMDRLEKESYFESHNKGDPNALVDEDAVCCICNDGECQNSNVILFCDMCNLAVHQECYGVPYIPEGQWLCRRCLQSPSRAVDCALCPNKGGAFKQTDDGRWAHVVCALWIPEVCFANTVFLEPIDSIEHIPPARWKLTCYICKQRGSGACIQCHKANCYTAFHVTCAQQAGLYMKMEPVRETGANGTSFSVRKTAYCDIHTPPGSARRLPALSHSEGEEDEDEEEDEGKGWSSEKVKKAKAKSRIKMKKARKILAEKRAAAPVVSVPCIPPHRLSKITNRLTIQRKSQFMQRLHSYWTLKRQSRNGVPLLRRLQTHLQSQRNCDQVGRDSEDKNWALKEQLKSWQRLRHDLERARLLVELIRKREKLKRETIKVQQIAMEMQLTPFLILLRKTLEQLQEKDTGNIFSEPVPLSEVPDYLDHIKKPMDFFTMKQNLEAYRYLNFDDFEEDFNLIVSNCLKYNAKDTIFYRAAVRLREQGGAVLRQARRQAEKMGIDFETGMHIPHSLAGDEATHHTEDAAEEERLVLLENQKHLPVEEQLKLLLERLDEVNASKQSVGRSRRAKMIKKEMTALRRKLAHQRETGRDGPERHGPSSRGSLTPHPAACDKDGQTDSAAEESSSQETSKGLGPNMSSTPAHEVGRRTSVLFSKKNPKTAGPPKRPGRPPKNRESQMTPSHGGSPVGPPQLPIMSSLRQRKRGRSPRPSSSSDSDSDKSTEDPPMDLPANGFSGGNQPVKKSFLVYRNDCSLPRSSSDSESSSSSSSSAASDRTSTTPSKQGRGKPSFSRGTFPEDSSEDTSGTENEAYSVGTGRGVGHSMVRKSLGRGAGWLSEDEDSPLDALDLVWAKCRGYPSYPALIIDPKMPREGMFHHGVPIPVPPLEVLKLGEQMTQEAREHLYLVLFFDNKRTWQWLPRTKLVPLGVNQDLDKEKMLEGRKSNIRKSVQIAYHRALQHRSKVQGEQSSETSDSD
# full-length KAT6A (KAT6A^FL) (human), sequence (Q92794 whole entry): as the sequence (Q92794 whole entry, chain 1 of 2) above
# KAT6A MYST domain (KAT6A 501-784) (human), sequence (Q92794 501-784): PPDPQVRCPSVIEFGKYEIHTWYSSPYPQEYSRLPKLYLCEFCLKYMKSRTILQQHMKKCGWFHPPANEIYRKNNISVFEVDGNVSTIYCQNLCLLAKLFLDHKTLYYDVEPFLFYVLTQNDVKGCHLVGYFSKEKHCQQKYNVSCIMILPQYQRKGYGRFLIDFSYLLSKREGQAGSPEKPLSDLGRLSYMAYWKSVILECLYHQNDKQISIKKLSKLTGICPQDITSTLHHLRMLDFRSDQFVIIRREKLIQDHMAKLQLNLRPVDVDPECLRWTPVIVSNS
# KAT6A^FL 4-protein complex (KAT6A^FL 4-plex), sequence (Q92794 whole entry, looked up, one chain of several): as the sequence (Q92794 whole entry, chain 1 of 2) above
Substance,"KM of steady-state acetylation of the peptide (CoA formation by MS; 20 μM AcCoA, 25 °C) [1] [µM]","KM of steady-state acetylation of the peptide (CoA formation by MS; 20 μM AcCoA, 25 °C) [2] [µM]","KM of steady-state acetylation of the peptide (CoA formation by MS; 20 μM AcCoA, 25 °C) [3] [µM]","KM of steady-state acetylation of the peptide (CoA formation by MS; 20 μM AcCoA, 25 °C) [4] [µM]"
H3 (1-21) (peptide),380,16,,
H3.3 (1-43) (peptide),130,3.2,,
H3.3 (15-36) (peptide),360,30,16,13

# Source: article PMC11946513, “Modulation of the substrate preference of a MYST acetyltransferase by a scaffold protein” (The Journal of Biological Chemistry, 2025)
